Results: the supplement of paper PMC10065799, “High-throughput profiling of sequence recognition by tyrosine kinases and SH2 domains using bacterial peptide display” (eLife, 2023)

Legend:
[1] = tested on: AncSZ; test: phosphorylation enrichment, bacterial display (enrichment ratio); higher = better substrate or ligand; peptides without Tyr show the background
[2] = target: EPHB1 (UniProt P54762); test: as above
[3] = target: EPHB2 (UniProt P29323); test: as above
[4] = target: FGFR1 (UniProt P11362); test: as above
FGFR1, sequence (P11362 whole entry, looked up): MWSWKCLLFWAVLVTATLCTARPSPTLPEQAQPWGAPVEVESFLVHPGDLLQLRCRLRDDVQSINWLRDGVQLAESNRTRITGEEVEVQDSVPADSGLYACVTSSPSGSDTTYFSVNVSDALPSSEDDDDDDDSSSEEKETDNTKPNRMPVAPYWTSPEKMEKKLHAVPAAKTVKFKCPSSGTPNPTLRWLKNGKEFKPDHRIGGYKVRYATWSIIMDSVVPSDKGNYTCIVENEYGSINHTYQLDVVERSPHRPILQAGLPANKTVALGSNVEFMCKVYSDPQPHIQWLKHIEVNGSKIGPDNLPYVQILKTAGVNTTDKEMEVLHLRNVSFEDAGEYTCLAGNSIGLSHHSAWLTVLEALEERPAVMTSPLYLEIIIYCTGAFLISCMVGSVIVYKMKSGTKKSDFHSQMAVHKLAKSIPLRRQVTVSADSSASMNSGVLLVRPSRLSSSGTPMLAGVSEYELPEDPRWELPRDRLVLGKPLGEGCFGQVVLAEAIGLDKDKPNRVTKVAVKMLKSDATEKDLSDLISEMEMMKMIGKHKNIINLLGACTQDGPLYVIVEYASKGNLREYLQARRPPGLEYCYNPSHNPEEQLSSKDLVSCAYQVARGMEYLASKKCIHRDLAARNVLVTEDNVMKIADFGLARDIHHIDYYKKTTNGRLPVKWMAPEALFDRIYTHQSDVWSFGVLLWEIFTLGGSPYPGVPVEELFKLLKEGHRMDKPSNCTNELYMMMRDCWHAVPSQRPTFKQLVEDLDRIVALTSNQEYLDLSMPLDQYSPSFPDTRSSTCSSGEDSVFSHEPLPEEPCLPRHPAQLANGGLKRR

[5] = target: FGFR3 (UniProt P22607); test: as above
FGFR3, sequence (P22607 whole entry, looked up): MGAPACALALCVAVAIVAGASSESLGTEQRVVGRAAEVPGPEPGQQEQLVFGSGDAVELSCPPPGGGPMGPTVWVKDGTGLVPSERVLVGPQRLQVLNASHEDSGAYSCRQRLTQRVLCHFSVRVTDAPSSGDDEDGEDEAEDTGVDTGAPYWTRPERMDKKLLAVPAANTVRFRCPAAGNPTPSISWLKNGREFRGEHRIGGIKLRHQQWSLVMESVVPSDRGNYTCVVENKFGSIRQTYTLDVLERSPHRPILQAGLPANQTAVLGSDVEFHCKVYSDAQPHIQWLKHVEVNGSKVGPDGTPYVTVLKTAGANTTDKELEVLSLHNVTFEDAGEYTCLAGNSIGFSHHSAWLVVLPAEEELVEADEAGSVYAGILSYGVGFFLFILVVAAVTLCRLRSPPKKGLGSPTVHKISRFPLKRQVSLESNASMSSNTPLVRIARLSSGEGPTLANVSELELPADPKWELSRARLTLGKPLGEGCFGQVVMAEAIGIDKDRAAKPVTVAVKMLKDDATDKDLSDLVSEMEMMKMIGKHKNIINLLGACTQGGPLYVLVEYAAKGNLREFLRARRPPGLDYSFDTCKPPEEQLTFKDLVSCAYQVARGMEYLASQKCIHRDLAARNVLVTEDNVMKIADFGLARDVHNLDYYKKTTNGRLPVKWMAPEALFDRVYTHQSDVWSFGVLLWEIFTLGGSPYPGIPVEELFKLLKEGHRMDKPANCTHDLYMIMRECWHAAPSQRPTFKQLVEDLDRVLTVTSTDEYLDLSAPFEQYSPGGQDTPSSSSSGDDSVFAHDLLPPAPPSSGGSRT

[6] = tested on: Fer (mouse); test: as above
[7] = target: Fes (UniProt P07332); test: as above
[8] = target: Fyn (UniProt P06241); test: as above
[9] = target: Hck (UniProt P08631); test: as above
[10] = target: Jak2 (UniProt O60674); test: as above
Jak2, sequence (O60674 whole entry, looked up): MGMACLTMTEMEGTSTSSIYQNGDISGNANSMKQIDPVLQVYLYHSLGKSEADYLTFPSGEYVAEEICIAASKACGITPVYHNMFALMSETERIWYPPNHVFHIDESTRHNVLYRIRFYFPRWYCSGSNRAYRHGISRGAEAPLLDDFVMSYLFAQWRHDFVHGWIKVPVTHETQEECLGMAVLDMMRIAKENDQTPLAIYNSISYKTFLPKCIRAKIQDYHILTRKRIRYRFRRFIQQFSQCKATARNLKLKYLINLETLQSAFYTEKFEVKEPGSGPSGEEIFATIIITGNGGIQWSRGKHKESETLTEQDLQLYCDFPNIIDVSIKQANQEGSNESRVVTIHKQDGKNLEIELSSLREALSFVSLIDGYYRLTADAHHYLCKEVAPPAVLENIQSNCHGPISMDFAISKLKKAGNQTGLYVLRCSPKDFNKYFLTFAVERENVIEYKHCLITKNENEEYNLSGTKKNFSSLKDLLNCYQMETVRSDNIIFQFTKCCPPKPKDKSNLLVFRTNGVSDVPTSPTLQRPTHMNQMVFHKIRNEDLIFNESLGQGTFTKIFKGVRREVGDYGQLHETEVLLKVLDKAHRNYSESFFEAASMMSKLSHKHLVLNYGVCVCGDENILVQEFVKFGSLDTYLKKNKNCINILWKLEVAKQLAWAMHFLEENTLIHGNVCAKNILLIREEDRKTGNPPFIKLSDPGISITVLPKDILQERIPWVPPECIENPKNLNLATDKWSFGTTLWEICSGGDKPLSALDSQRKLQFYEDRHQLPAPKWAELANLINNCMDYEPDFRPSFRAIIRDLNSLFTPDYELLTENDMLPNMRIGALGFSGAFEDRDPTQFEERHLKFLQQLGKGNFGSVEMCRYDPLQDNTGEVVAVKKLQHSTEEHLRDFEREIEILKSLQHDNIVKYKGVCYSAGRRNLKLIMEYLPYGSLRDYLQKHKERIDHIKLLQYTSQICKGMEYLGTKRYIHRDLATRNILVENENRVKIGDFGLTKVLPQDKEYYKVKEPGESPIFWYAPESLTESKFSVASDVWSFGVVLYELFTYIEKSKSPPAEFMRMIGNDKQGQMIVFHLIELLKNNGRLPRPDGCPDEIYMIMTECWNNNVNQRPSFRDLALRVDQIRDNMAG

[11] = target: MERTK (UniProt Q12866); test: as above
MERTK, sequence (Q12866 whole entry, looked up): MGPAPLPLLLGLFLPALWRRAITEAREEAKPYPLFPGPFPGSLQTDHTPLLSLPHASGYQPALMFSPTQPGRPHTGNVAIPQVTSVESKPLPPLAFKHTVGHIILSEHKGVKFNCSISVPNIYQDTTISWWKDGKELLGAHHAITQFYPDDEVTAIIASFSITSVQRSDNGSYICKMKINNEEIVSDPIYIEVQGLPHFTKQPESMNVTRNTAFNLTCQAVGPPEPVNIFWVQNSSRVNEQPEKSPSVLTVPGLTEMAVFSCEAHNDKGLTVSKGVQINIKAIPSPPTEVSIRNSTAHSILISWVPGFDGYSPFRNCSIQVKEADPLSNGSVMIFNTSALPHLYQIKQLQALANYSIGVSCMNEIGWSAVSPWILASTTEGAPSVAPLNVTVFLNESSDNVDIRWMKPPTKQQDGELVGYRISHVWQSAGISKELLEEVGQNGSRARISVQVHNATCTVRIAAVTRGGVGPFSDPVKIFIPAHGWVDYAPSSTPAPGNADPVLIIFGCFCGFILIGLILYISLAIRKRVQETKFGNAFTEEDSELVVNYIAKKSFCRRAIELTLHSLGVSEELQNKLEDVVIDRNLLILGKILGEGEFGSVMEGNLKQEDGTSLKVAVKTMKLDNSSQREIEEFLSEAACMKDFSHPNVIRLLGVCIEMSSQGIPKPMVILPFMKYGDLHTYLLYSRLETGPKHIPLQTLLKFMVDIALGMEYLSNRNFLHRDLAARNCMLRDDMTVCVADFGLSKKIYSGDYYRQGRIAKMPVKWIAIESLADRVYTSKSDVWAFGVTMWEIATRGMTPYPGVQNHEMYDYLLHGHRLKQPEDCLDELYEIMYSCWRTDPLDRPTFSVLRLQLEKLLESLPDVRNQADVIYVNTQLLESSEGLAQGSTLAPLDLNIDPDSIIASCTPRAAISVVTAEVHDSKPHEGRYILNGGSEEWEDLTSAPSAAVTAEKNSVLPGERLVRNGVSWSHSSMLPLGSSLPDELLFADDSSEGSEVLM

[12] = tested on: c-Abl (mouse); test: as above
[13] = tested on: c-Src; test: as above
[14] = target: Grb2 SH2 (UniProt P62993); test: SH2 binding enrichment of the phosphorylated peptide, bacterial display (enrichment ratio); higher = better substrate or ligand; peptides without Tyr show the background
[15] = target: SHP2-C SH2; test: as above
[16] = target: c-Src SH2; test: as above
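Throughout, for SH2 binding enrichment of the phosphorylated peptide, bacterial display: peptide library displayed on the E. coli surface as eCPX fusions, selected cells deep-sequenced, score is each peptide's frequency after selection divided by its frequency in the input.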
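Throughout, for phosphorylation enrichment, bacterial display: 11-residue human phosphosite peptides and single-mutation variants displayed on the E. coli surface, counted by deep sequencing, each peptide's frequency after selection divided by its frequency in the unselected input library; frequency after pTyr selection over input frequency; kinase dosed for 20-30% of maximal phosphorylation in three min.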

EPHB1, sequence (P54762 whole entry, looked up): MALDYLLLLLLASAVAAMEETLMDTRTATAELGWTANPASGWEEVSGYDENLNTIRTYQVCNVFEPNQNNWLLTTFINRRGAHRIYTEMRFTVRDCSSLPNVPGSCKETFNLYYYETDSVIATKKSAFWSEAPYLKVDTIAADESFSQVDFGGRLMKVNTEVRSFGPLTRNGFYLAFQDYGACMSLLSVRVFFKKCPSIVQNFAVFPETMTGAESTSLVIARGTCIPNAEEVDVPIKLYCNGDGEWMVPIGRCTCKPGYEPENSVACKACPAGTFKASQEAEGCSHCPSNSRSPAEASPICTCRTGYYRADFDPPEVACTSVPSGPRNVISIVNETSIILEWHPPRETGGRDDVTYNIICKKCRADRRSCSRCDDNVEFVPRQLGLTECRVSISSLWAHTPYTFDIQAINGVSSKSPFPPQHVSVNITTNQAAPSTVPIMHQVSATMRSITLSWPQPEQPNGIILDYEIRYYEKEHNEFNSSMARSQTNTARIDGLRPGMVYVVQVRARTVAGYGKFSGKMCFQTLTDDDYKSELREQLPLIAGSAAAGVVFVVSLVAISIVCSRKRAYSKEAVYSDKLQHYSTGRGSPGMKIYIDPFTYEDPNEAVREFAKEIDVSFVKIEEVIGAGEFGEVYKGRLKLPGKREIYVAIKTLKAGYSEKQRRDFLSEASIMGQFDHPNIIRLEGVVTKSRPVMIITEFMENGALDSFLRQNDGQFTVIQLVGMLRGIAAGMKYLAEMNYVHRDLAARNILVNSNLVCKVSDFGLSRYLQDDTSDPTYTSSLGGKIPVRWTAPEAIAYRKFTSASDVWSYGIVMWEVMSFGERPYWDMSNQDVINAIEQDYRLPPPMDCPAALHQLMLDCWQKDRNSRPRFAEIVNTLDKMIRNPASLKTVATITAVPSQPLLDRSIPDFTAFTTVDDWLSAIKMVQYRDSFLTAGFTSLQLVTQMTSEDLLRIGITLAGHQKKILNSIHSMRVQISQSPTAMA

Sequence	SH2 binding enrichment [14]	SH2 binding enrichment [15]	SH2 binding enrichment [16]	phosphorylation enrichment [1]	phosphorylation enrichment [2]	phosphorylation enrichment [3]	phosphorylation enrichment [4]	phosphorylation enrichment [5]	phosphorylation enrichment [6]	phosphorylation enrichment [7]	phosphorylation enrichment [8]	phosphorylation enrichment [9]	phosphorylation enrichment [10]	phosphorylation enrichment [11]	phosphorylation enrichment [12]	phosphorylation enrichment [13]
RMLRKYQELMS [KRT74_Y425_E424K]	0.712	0.608	0.438	0.643	0.419	0.397	0.556	0.402	0.522	0.673	0.509	0.43	0.5	0.485	0.455	0.447
RNDLDYMDSRR [GAA_Y407_W402R]	0.971	0.552	0.422	0.809	0.426	0.408	0.512	0.645	0.341	0.81	0.455	0.509	0.798	0.528	0.779	0.555
RNVLVYDKLNV [ROR2_Y624]	1.06	0.535	0.908	0.933	1.97	1.97	0.614	0.787	3.9	0.64	5.08	13.9	0.632	3.88	2.12	3.99
RPLVVYPWTQR [HBB_Y36_L32P]	0.809	0.718	0.623	0.728	1.11	0.695	0.473	0.45	0.358	0.748	0.468	0.407	0.445	0.389	0.509	0.446
RPQDGYRIVQH [PTPRT_Y1329]	0.915	0.476	0.508	0.797	0.406	0.565	0.557	0.625	0.591	0.708	0.554	0.586	0.534	0.493	0.74	0.649
RPSRQYATLDV [SCAMP3_Y35]	0.899	6.79	9.6	0.373	0.331	0.33	0.37	0.336	0.313	0.461	0.315	0.376	0.42	0.379	0.381	0.319
RRAKGYPIDLF [ITGB2_Y125_YF]	0.573	0.687	0.427	4.21	0.566	0.605	1.06	0.677	1.08	0.993	0.563	0.57	1.64	0.878	0.771	1.25
RRFLFYFSFLL [PTEN_Y177_V175L_YF]	0.821	0.478	0.519	0.691	0.493	0.608	0.472	0.508	0.398	0.794	0.567	0.541	0.727	0.53	0.613	0.683
RRNEIYEIKVD [LGR5_Y387_H383R]	0.986	0.692	0.426	1.09	0.751	1.4	0.923	0.771	0.757	1.36	5.59	5.36	0.669	0.468	0.574	4.83
RSAGKDDVFLI [MECP2_Y120_Y120D_YF]	1.01	0.861	0.481	0.842	0.646	0.75	0.629	0.894	0.511	1.16	0.557	0.683	0.706	0.494	0.872	0.601
RSFLSYYTSHV [NEFL_Y442_P440L]	1.12	1.63	1.66	0.996	0.998	0.761	0.575	0.834	0.491	0.876	0.692	0.421	1.71	1.44	0.606	0.561
RTESQYQENRG [LRCH3_Y354_R350T]	1.19	0.862	0.554	0.792	0.675	0.414	0.499	0.591	0.539	1	0.578	0.653	1.26	0.688	0.799	0.557
RVGNMYVRGLS [ABCG8_Y209]	0.994	0.732	0.564	0.672	0.457	0.471	0.58	0.682	0.468	0.839	0.574	0.675	0.709	0.395	0.494	0.331
RVLQLYGCSPS [ASTL_Y279_K277Q]	0.853	0.727	0.493	1.69	1.3	1.71	1.06	1.26	1.15	1.72	1.54	2.33	1.48	0.576	1.38	1.38
SDFSSYARTSI [TERT_Y949_YF]	0.7	0.805	0.586	0.877	0.546	0.625	0.514	0.613	0.56	0.834	0.488	0.453	0.798	0.477	0.55	0.506
SDVWSYGVTMW [ZAP70_Y525]	0.84	0.576	0.614	1.15	0.688	0.695	0.557	0.847	0.63	1.39	0.477	0.695	1.26	0.502	0.979	0.54
SEDANYKRVSC [TTC3_Y1288]	1.15	0.646	0.594	0.886	0.558	0.55	0.418	0.696	0.491	1.02	0.612	0.532	1.06	0.449	0.82	0.442
SENAFYLSPDI [COL6A3_Y2827]	0.739	0.698	0.475	1.69	0.793	0.687	0.762	0.841	0.724	1.21	0.607	0.687	1.68	0.754	1.49	0.607
SEPDLYYDPRG [PKP1_Y160_C161Y]	0.864	0.679	0.524	2.91	14.3	13.6	10.8	8.64	1.65	1.16	5.41	8.75	3.35	7.05	3.09	4.93
SFHSSYSEIKD [DCLRE1C_Y322]	0.982	4.96	22.5	0.738	0.435	0.532	0.554	0.681	0.52	0.744	0.512	0.51	0.559	0.57	0.448	0.506
SFPHEYGSQEG [RBM10_Y48_R46H_YF]	0.93	0.623	0.643	0.768	0.485	0.602	0.565	1.46	0.47	0.87	0.515	0.679	0.645	0.459	0.583	0.395
SGSWSYNTSTE [SELE_Y24_A21S]	0.826	0.565	0.55	0.925	0.56	0.586	0.527	0.768	0.393	1.07	0.5	0.536	0.968	0.503	0.787	0.503

Second part, led by results:

SH2 binding enrichment [14]	SH2 binding enrichment [15]	SH2 binding enrichment [16]	Sequence	phosphorylation enrichment [1]	phosphorylation enrichment [2]	phosphorylation enrichment [3]	phosphorylation enrichment [4]	phosphorylation enrichment [5]	phosphorylation enrichment [6]	phosphorylation enrichment [7]	phosphorylation enrichment [8]	phosphorylation enrichment [9]	phosphorylation enrichment [10]	phosphorylation enrichment [11]	phosphorylation enrichment [12]	phosphorylation enrichment [13]
0.889	0.556	0.549	RLYARYFQGDL [PDK3_Y337]	1.24	0.705	0.664	0.684	0.923	0.543	1.26	0.6	0.511	1.57	0.711	1.18	0.763
0.76	0.904	0.405	RMETAYGPSVT [MXRA5_Y2717_E2716A]	0.635	0.413	0.46	0.448	0.529	0.617	0.718	0.467	0.63	0.661	0.444	0.511	0.646
0.998	0.595	0.566	RNAAEYLLSSG [ABL1_Y139]	0.765	0.38	0.345	0.456	0.446	0.596	0.723	0.35	0.48	0.667	0.294	0.353	0.34
0.669	0.839	0.586	RNFVRYVQGLK [VWF_Y1400]	0.277	0.324	0.37	0.255	0.445	0.309	0.599	0.511	0.339	0.556	0.48	0.548	0.566
0.657	0.818	0.414	RRVLVYVGRGA [QDPR_Y16_G17V]	1.1	0.63	0.858	0.797	0.648	0.85	0.799	0.716	0.506	1.03	0.762	0.798	0.788
0.755	0.532	0.553	RTLSEYARPHV [RERE_Y1259]	1.14	0.832	0.852	0.606	0.51	0.468	1.11	0.668	0.683	0.871	0.443	31.7	0.454
0.806	0.502	0.643	SAVVPYEPPEV [TP53_Y220_V216A]	1.23	0.643	0.608	0.586	0.761	0.479	1.21	0.556	0.513	0.998	0.409	0.649	0.484
0.934	0.543	0.455	SFKNKYGMVAQ [APOB_Y276_YF]	0.42	0.302	0.354	0.335	0.39	0.335	0.574	0.353	0.354	0.43	0.341	0.465	0.375
0.782	0.655	0.462	SGGCSYGSGGG [KRT1_Y539_G537C]	0.803	0.475	0.478	0.402	0.561	0.462	0.916	0.381	0.446	0.773	0.346	0.637	0.394
1.21	1.11	0.899	SGIFQYNIAKF [FOXL2_Y83_I84N_YF]	0.786	0.59	0.541	0.486	0.691	0.48	1.01	0.472	0.494	0.876	0.435	0.739	0.432
2.21	1.32	1.48	SGVSFYINLCQ [IGF2R_Y2025_N2020S_YF]	1.5	0.806	0.695	0.787	1.19	0.529	1.46	0.361	0.481	1.61	0.686	1.04	0.522
